Experiment [1] addresses T1, biotinylated BSA conjugated peptide (influenza A virus, also: biotinylated, BSA conjugated).
T1 peptide: KSLLTEVETPI
Nature of the experiment: BLI. In general terms: BLI is a label-free optical method that tracks binding on a fibre tip over time.

For experiment [2], the target named is T2, matrix protein 2 [Influenza A virus (A/New York/392/2004(H3N2))] (Influenza A virus (A/New …, UniProt P0DOF5, strain)).
T2 construct: also called M2; M2 protein
As to the kind of experiment: flow cytometry on cells. Conditions: one partner purified. Background: Flow cytometry measures light scatter and fluorescence of single cells or particles in a stream.

Ends that are not written are not given here.

B1: scFv JU1 (scFv, V domains shown)
VH: EVQLLESGGGLVQPGGSLRLSCAASGFTFSSYAMSWVRQAPGKGLEWVSRISAQGNQTRYSDSVKGRFTISRDNSKNTLYLQMNSLRAEDTAVYYCAKKSSYFDYWGQGTLVTVSS
VL: DIQMTQSPSSLSASVGDRVTITCRASQSISSYLNWYQQKPGKAPKLLIYKASTLQSGVPSRFSGSGSGTDFTLTISSLQPEDFATYYCQQWRTRPLTFGQGTKVEIK
One may read the Kd as the free concentration of one partner at which half of the binding sites on the other are occupied at equilibrium, for simple one-to-one binding. B1 showed a Kd in experiment [1] of 3610 nM. For the same molecule, in experiment [2], the binding result is “binds”.

B2: scFv AU1 (scFv, V domains shown)
VH: EVQLLESGGGLVQPGGSLRLSCAASGFTFSSYAMSWVRQAPGKGLEWVSTILQHGQRTLYADSVKGRFTISRDNSKNTLYLQMNSLRAEDTAVYYCAKNRAVFDYWGQGTLVTVSS
VL: DIQMTQSPSSLSASVGDRVTITCRASQSISSYLNWYQQKPGKAPKLLIYTASTLQSGVPSRFSGSGSGTDFTLTISSLQPEDFATYYCQQYRQRPPTFGQGTKVEIK
notes: also called AU1 scFv
For B2, the affinity in experiment [1], expressed as Kd, was 940 nM. Also, the binding result in experiment [2] was “binds”.

B3: scFv GU1 (scFv, V domains shown)
VH: EVQLLESGGGLVQPGGSLRLSCAASGFTFSSYAMSWVRQAPGKGLEWVSGISQLGGYTGYAGSVKGRFTISRDNSKNTLYLQMNSLRAEDTAVYYCAKNRATFDYWGQGTLVTVSS
VL: DIQMTQSPSSLSASVGDRVTITCRASQSISSYLNWYQQKPGKAPKLLIYAASHLQSGVPSRFSGSGSGTDFTLTISSLQPEDFATYYCQQSQHKPLTFGQGTKVEIK
B3 had an equilibrium dissociation constant (Kd) in experiment [1] of 350 nM. Besides, the binding result in experiment [2] is on record as “binds”.

B4: scFv UU1 (scFv, V domains shown)
VH: EVQLLESGGGLVQPGGSLRLSCAASGFTFSSYAMSWVRQAPGKGLEWVSTISMSGKRTQYADSVKGRFTISRDNSKNTLYLQMNSLRAEDTAVYYCAKRHRYFDYWGQGTLVTVSS
VL: DIQMTQSPSSLSASVGDRVTITCRASQSISSYLNWYQQKPGKAPKLLIYRASKLQSGVPSRFSGSGSGTDFTLTISSLQPEDFATYYCQQPGWRPKTFGQGTKVEIK
In experiment [1], B4 registered an equilibrium dissociation constant (Kd) of 8600 nM. Further, the binding result in experiment [2] is given as “binds”.

The values are drawn from publication PMC10367348 (Journal of Biomedical Science, 2023).
